Measured values from patent publication US12637662B2, “Cells, islets, and organoids that evade immune detection and autoimmunity, methods of production and use thereof” (SALK INSTITUTE FOR BIOLOGICAL STUDIES, priority 2018, dated 2026).

Legend:
[1] = system: ERRγ (ESRRG), mitochondrial and insulin gene expression; assay: Quantitative RT-PCR gene expression in hiPSC-derived islet organoids/HILOs; type: cell-based, human; conditions: hiPSC-derived islet organoids, MCS or HILOs
Procedure: hiPSCs were cultured in matrigel-coated plates. Single cell suspensions were prepared using Accutase, washed in PBS, and collected by centrifugation (1000-1300 rpm for 5 min). Cells were re-suspended with 3D Kelco Gel Stem TeSR™ Base Medium in the presence of the ROCK inhibitor (10 μM Y-27632, StemCell) for 5 to 7 days until spheroids reached 50-100 μm diameter. The medium was then replaced with 0.015% Kelco gel containing 0.3% methylcellulose and supplemented with 100 ng/ml human Activin A (R&D Systems), 3 μM CHIR99021 (Axon or Selleckchem) in differentiation medium (S1) for 1 day, and then 100 ng/ml human Activin in differentiation medium (S1) for another 2 days (Stage 1, Definitive Endoderm). Subsequently, the medium was replaced with differentiation medium (S2) with 50 ng/ml FGF7 (R&D Systems) for 2 days, differentiation medium (S3) with 50 ng/ml FGF7, 0.25 μM SANT-1 (Sigma), 1 μM Retinoic Acid (Sigma), 100 nM LDN193189, 10 μM Alk5 inhibitor II and 200 nM of the ß-Amyloid Precursor Protein modulator TPB for 3 days, then 50 ng/ml FGF7, 0.25 μM SANT-1 (Sigma), 1 μM Retinoic Acid (Sigma), 100 nM LDN193189, 10 μM Alk5 inhibitor II and 100 nM of the ß-Amyloid Precursor Protein modulator TPB for 2 days. Subsequently the medium was replaced with differentiation medium (S4) with 0.25 μM SANT-1, 50 nM retinoic acid, 100 nM LDN193189, 10 μM Alk5 inhibitor II, 1 μM T3 for 3 days. Subsequently, the medium was replaced with differentiation medium (S5) with 100 nM LDN193189, 100 nM […] inhibitor XX (GSiXX, Millipore), 10 μM Alk5 inhibitor IL, 1 μM T3 for 7 days. Subsequently, the medium was replaced with differentiation media (S5) with 10 μM Trolox (Calbiochem), 2 μM R428 (Selleckchem), 1 mM N-acetyl cysteine, 10 μM Alk5 inhibitor II, 1 μM T3 for an additional 7 to 20 days. […]
Total RNA was extracted using TRIzol reagent (Invitrogen) and RNeasy KIT (Qiagen). […] Real time quantitative RT-PCR (qPCR) was performed using SYBR Green (Bio-Rad).

[2] = system: insulin-expressing cells of HILOs; assay: Mitochondrial content (MitoTracker) and insulin-GFP by flow cytometry; type: cell-based, human
Description: FIGS. 8A-8H provide images, graphs, a schematic and a diagram showing results related to WNT4 mediated insulin-GFP expression and WNT4-driven metabolic maturation. FIG. 8A presents representative images of mitochondrial content, indicated by MitoTracker (red) staining, in PBS and WNT4 treated HILOs (scale bar, 100 μm). FIG. 8B presents graphs of flow cytometry quantification of insulin expression (GFP) and mitochondrial content in HILOs treated with recombinant human WNT4 (rhWNT4), WNT5A (rhWNT5A), or conditioned medium (CM) from control or WNT5A overexpressing fibroblasts (n=3). Error bars represent SEM. *p<0.05. FIG. 8C presents a gene ontology of transcriptional changes induced by WNT4 treatment (100 ng/ml WNT4 from day26 to day33) in HILOs. […] Error bars represent SEM. *p<0.05. FIG. 8E presents a Venn diagram showing overlap between WNT4-induced increases in chromatin accessibility in GFP^+ cells and increases in HILO gene expression (upper panel), and gene ontology pathways enriched in the intersection gene set. […] For FIGS. 8G and 8H, postnatal islets (day P11-14) from WT and β cell specific ERRγKO mice were cultured with or without rhWNT4 (100 ng/ml) for >5 days.

B1: WNT5a: recombinant human Wnt5a protein (protein, UniProt P41221 62-380, looked up)
Protein Wnt-5a: IIGAQPLCSQLAGLSQGQKKLCHLYQDHMQYIGEGAKTGIKECQYQFRHRRWNCSTVDNTSVFGRVMQIGSRETAFTYAVSAAGVVNAMSRACREGELSTCGCSRAARPKDLPRDWLWGGCGDNIDYGYRFAKEFVDARERERIHAKGSYESARILMNLHNNEAGRRTVYNLADVACKCHGVSGSCSLKTCWLQLADFRKVGDALKEKYDSAAAMRLNSRGKLVQVNSRFNSPTTQDLVYIDPSPDYCVRNESTGSLGTQGRLCNKTSEGMDGCELMCCGRGYDQFKTVQTERCHCKFHWCCYVKCKKCTEIVDQFVCK
With B1 the “expression of ERRγ (ESRRG) and mitochondrial genes” value [1] was “induced”, the “proportion of insulin expressing cells” value ([2]; GFP sorting, HILOs with and without WNT treatment) was “not affected” and the “mitochondrial content / number” value ([2]; MitoTracker, HILOs / insulin-expressing cells) was “increased the mitochondrial content”.
